Measured values: US20260139240A1

Key:
[1] = target: Human α1-acid glycoprotein (AGP) (human) (UniProt P02763); test: SPR (Biacore T100), SubB immobilised
[2] = target: Human α1-acid glycoprotein (AGP) (human) (UniProt P02763); test: SPR (Biacore […]), […], single cycle kinetics

Question: Which results are given for “Wild type SubB (subtilase cytotoxin B subunit) (from UniProt Q6EZC3 24-141) (other; other documents disagree on this pair)”?
Answer: fold reduced binding affinity compared to bovine AGP [1]: 13 fold; Kd [2]: 2120 nM
